Legend:
Assay type in all cases: binding
[1] = biological target: Common-His pHis peptide; test: BLI of pHis Fabs with phosphorylated Common-His peptide
Description: (§1) Next, we turned to further analyze the peptide selectivity using BLI experiments. Nine amino acid peptide sequences from proteins known to undergo histidine phosphorylation were selected and synthesized (SI Appendix, Table S2). The biotinylated peptides ACLY, NM23, SCS, and Common-His were chemically phosphorylated using phosphoramidate (8 h at 23 °C), and affinity-purified using immobilized 1-pHis IgGs or 3-pHis IgGs, as described above. BLI signal intensity was used to assess peptide binding to the Fabs. SC1-1, SC50-3, SC39-4, and SC56-2 had signal intensities in 0.5 to 1 nm for the association (SI Appendix, Fig. S10), whereas SC44-8 had maximum signal (2.0 nm) with ACLYana, which has GpHAGAG motif, and a signal of 0.5 nm for ACLY and SCS peptides, which have GpHAGAC and GpHAGAI motifs, respectively. However, there was no signal with NM23 and Common-His peptides, which lack this motif (SI Appendix, Fig. S10D). […] The binding kinetics of the pHis Fabs with this set of peptides indicate that the affinity values are similar for the pHis Fabs SC50-3, SC39-4, and SC56-2, consistent with them binding in a sequence-independent manner.
(§2) The binding kinetics of pHis Fabs with the peptides (pTza and pHis) were evaluated with an Octet RED96e (FortéBio). Streptavidin-coated biosensors (FortéBio) were presoaked in buffer containing 50 mM Hepes pH 8.0, 150 mM NaCl, 0.05% Tween-20, and 0.2% BSA for 15 min. The biotinylated pTza peptides or pHis peptides (20 nM) with and without phosphoramidate treatment were coated onto these streptavidin biosensors and analyzed for their binding to varying concentrations of the pHis Fabs with an association time of 120 s and dissociation time of 200 s. The entire set of experiments was repeated three times. The data were analyzed using the Octet software (FortéBio) and the rates of association and dissociation were obtained by global fitting data to the 1:1 Langmuir interaction model. […]
(§3) Peptides used in the DSF and BLI experiments were synthesized by the Salk Peptide Synthesis Core. These peptides were N-terminally biotinylated and C-terminally amidated. They were synthesized using standard Fmoc chemistry on a Gyros Protein Technologies Tribute peptide synthesizer with UV monitoring. […]
(§4) Phosphoramidation reaction. The small molecule phosphate donor phosphoramidate was used to phosphorylate the peptides containing His (Table S2). Phosphoramidate was synthesized based on Wei and Matthew’s method (2) and stored in a desiccator. 20 nanomoles of peptides were added to one micromole of the phosphoramidate in 50 mM Hepes pH 8.0 and 150 mM NaCl buffer. […]
(§5) 1H NMR of ACLYana peptide. A mixture of 5 mM ACLYana peptide and 250 mM phosphoramidate in 20 mM d18-Hepes, pH 8.0, 50 mM NaCl in D2O was incubated at 23 °C and monitored over the course of 29 h. […]

[2] = tested on: ACLY pHis peptide; test: BLI of pHis Fabs with phosphorylated ACLY peptide; conditions: GpHAGAC motif
Description: (§6) Next, we turned to further analyze the peptide selectivity using BLI experiments. Nine amino acid peptide sequences from proteins known to undergo histidine phosphorylation were selected and synthesized (SI Appendix, Table S2). The biotinylated peptides ACLY, NM23, SCS, and Common-His were chemically phosphorylated using phosphoramidate (8 h at 23 °C), and affinity-purified using immobilized 1-pHis IgGs or 3-pHis IgGs, as described above. BLI signal intensity was used to assess peptide binding to the Fabs. […]
as §2, with “Streptavidin-coated biosensors (FortéBio) were presoaked in buffer containing 50 mM Hepes pH 8.0, 150 mM NaCl, 0.05% Tween-20, and 0.2% BSA for 15 min.” left out, “The entire set of experiments was repeated three times.” left out
as §5

[3] = biological target: NM23 pHis peptide; test: BLI of pHis Fabs with phosphorylated NM23 peptide
Description: as §1, §2, §3, §4, §5

[4] = tested on: SCS pHis peptide; test: BLI of pHis Fabs with phosphorylated SCS peptide; conditions: GpHAGAI motif
Description: as §6
as §2, with “Streptavidin-coated biosensors (FortéBio) were presoaked in buffer containing 50 mM Hepes pH 8.0, 150 mM NaCl, 0.05% Tween-20, and 0.2% BSA for 15 min.” left out, “The entire set of experiments was repeated three times.” left out
as §5

[5] = BLI, phosphorylated, affinity-purified Common-His peptide, Table S7
[6] = BLI, phosphorylated, affinity-purified NM23 peptide, Table S7

B1: SC44-8: Fab of rabbit 3-pHis-specific monoclonal antibody with proclivity for GpHAGA motif (antibody, V domains shown)
VH: QSVKESGRGLVQPGGSLTLTCTASGFSIDSYGFSWVRQAPGKGLEHIGYLTAGGRAFYASWAKSRSTITRNTNENTVTLKMTSLTAADTATYFCAKLGSGNPVAIWGPGTLVTVSS
VL: QVLTQTPSFTSAAVGGTVTINCQSSQSVWRNKNLAWYQQKPGQPPKRLIYAIATLDSGVPSRFSGSGSGTQFTLTISDVQCDDAATYYCVGHYGSENDAYYAFGGGTEVVVK
B1 was tested, and the KD ([1]; BLI, biotinylated Common-His peptide phosphorylated with phosphoramidate (8 h at 23 °C), affinity-purified on 1-pHis or 3-pHis IgGs (cognate isomer), Table S7) was “No binding”, the ka [1, 5] was “No binding” and the kd [1, 5] was “No binding”. For the same molecule, the “BLI signal with Common-His peptide” value ([1]; phosphorylated Common-His, lacks GpHAGA motif) was “no signal”, the “BLI signal with ACLY peptide” value [2] was 0.5 nm and the KD ([3]; BLI, biotinylated NM23 peptide phosphorylated with phosphoramidate (8 h at 23 °C), affinity-purified on 1-pHis or 3-pHis IgGs (cognate isomer), Table S7) was “No binding”. For the same molecule, the ka [3, 6] was “No binding”, the kd [3, 6] was “No binding” and the “BLI signal with NM23 peptide” value ([3]; phosphorylated NM23, lacks GpHAGA motif) was “no signal”. For the same molecule, the “BLI signal with SCS peptide” value [4] was 0.5 nm.

Reference: paper PMC8017925, “Structural basis for differential recognition of phosphohistidine-containing peptides by 1-pHis and 3-pHis monoclonal antibodies” (Proceedings of the National Academy of Sciences of the …, 2021)
